For one substance, EGF-R Tyr-K activity in HCT-116 cells (reduction against cells exposed to MBP alone or control cells) results are on record in patent US20020045215A1.

This assay concerns the target Epidermal growth factor receptor of HCT-116 cells (human (HCT-116, a human colon cancer cell line)) (UniProt P00533). In words: cell-based or functional assay.

“ERRP fusion protein bound to MBP (from UniProt Q01279 25-448)” returned an EGF-R Tyr-K activity in HCT-116 cells (reduction against cells exposed to MBP alone or control cells) of 80 to 90%.
